In the supplement of paper PMC9732359:
± gives the uncertainty stated by the source.

Experiment: protein stability index of a GFP-peptide fusion (yeast GPS) (PSI 1-4); higher = more stable; sorted into four equal gates, so the index is relative within each strain
Procedure, shortened: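 Mid-log yeast cultures in leucine-free medium, carrying a pooled plasmid library, were sorted into four equal gates by their GFP/Cherry fluorescence ratio. Each plasmid expressed Cherry along with GFP fused upstream of a tiled 17-residue yeast protein peptide. Plasmids recovered from each gate were PCR-amplified and Illumina-sequenced, with reads assigned to strains by barcodes. The protein stability index was obtained by summing each gate's read frequency weighted by its gate number.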

Row | Sequence | protein stability index (doa10∆) | protein stability index (pdr5∆) | protein stability index (san1∆) | protein stability index (ubr1∆)
1 | VTRKQEDARRNPNPSSQ [RPC37] | 3.33 ± 0.087 | 3.44 ± 0.094 | 3.19 ± 0.081 | 3.54 ± 0.061
2 | LPEPTEGFAADDEPTTP [FAS1] | 3 ± 0.095 | 2.65 ± 0.099 | 3.35 ± 0.15 | 2.92 ± 0.065
3 | THNDIDSTAVALEEGLN [YJL039C/NUP192] | 2.78 ± 0.096 | 3.05 ± 0.047 | 2.53 ± 0.082 | 2.56 ± 0.06
4 | DSYIALYEKDIVPSMTH [RET1] | 2.5 ± 0.066 | 2.51 ± 0.07 | 2.46 ± 0.075 | 2.65 ± 0.067
5 | KHIKNLEDDSLLSYPIK [RPN12] | 2.9 ± 0.047 | 2.44 ± 0.033 | 2.56 ± 0.045 | 2.617 ± 0.026
6 | DRVFNVPTIGVVNSNFA [YJR042W/NUP85] | 2.57 ± 0.08 | 2.7 ± 0.085 | 2.48 ± 0.086 | 2.5 ± 0.036
7 | NVELLNCIRILADKLEN [YIL149C/MLP2] | 1.22 ± 0.069 | 1.36 ± 0.074 | 1.06 ± 0.13 | 1.2 ± 0.045
8 | GSIAMARVLFDDMVEYE [CYT1] | 3.51 ± 0.18 | 3.33 ± 0.12 | 3.04 ± 0.1 | 3.35 ± 0.097
9 | HGMFSSASVRALIENWA [FAS1] | 1.48 ± 0.11 | 1.84 ± 0.12 | 1.48 ± 0.17 | 1.76 ± 0.064
10 | ARAVQDNGESAFRTLRL [RPL13A] | 3 ± 0.13 | 2.88 ± 0.1 | 1.57 ± 0.098 | 2.87 ± 0.096
11 | KQFLTKDLKFPLPHRVQ [RPL20A] | 2.67 ± 0.075 | 2.78 ± 0.057 | 2.86 ± 0.057 | 2.78 ± 0.046
12 | FNSVQKKSRSNLSQEND [YAR002W/NUP60] | 2.81 ± 0.09 | 2.85 ± 0.071 | 2.49 ± 0.1 | 3.12 ± 0.12
13 | HLNHYILLRYHHNDISN [YCG1] | 1.23 ± 0.088 | 1.17 ± 0.068 | 1.19 ± 0.15 | 1.33 ± 0.063
14 | FKDETISKKIIGMSLLM [SIR3] | 3.04 ± 0.062 | 2.07 ± 0.06 | 2.78 ± 0.068 | 3.51 ± 0.058
15 | KKMGVPYAIVKGKARLG [RPL8A] | 1.87 ± 0.17 | 2.09 ± 0.16 | 2.12 ± 0.17 | 
16 | DAISQVINIAKAHPNFP [FAS1] | 1.41 ± 0.076 | 2.65 ± 0.095 | 2.03 ± 0.26 | 2.91 ± 0.082
17 | NRSWDHAYNITFNNQDK [RPO31] | 2.75 ± 0.073 | 2.82 ± 0.061 | 2.7 ± 0.071 | 2.97 ± 0.042
18 | GNPLLYDGVERVSLQDI [QCR2] | 1.73 ± 0.23 | 2.18 ± 0.17 | 2.03 ± 0.17 | 2.19 ± 0.17
19 | EAGEVKDDGAFVKFLSK [RPL10] | 3.28 ± 0.087 | 3.22 ± 0.078 | 3.35 ± 0.07 | 3.61 ± 0.065
20 | CKQVHDKLTSIQDTLRT [MED7] | 2.68 ± 0.074 | 2.85 ± 0.048 | 2.67 ± 0.044 | 2.81 ± 0.053
21 | PKIETNVYVGMTDMQIQ [ISW2] | 2.96 ± 0.091 | 2.99 ± 0.091 | 3.04 ± 0.069 | 3.29 ± 0.11
22 | NITDNLFQELSKVVDDM [GRR1] | 2.69 ± 0.067 | 2.62 ± 0.083 | 2.28 ± 0.07 | 2.81 ± 0.098
23 | TRGRSATIRETYEIICD [RRP43] | 2.59 ± 0.049 | 2.68 ± 0.05 | 2.57 ± 0.058 | 2.62 ± 0.035
24 | PRYHSKNSFQQALQMKA [SWP82] | 1.4 ± 0.033 | 1.82 ± 0.049 | 1.38 ± 0.062 | 1.45 ± 0.043
25 | WVLHRDLKPANIMVTID [SSN3] | 1.28 ± 0.18 | 1.98 ± 0.14 |  | 2.48 ± 0.14
26 | SPNRLRVRTDDSVLLNR [YML031W/NDC1] | 2.78 ± 0.22 | 3.25 ± 0.21 | 2.99 ± 0.14 | 

Row | Sequence | protein stability index (doa10∆) | protein stability index (pdr5∆) | protein stability index (san1∆) | protein stability index (ubr1∆)
27 | KDQDSQIELSCNERVPL [SRP72] | 3.08 ± 0.08 | 3.12 ± 0.097 | 2.83 ± 0.056 | 3.01 ± 0.059
28 | TFDSSWNWAKQSLLSLY [FAS2] | 1.47 ± 0.066 | 1.3 ± 0.058 | 2.08 ± 0.15 | 1.58 ± 0.073
29 | VKRLLFTIRGFKQKLNE [MTW1] | 3.04 ± 0.058 | 2.76 ± 0.048 | 2.86 ± 0.044 | 3.14 ± 0.043
30 | GWKYEDVVAKLEAKRKV [RPL16A] | 2.78 ± 0.082 | 1.88 ± 0.063 | 1.93 ± 0.13 | 1.88 ± 0.046
31 | TKEQYAAESKKYRQTKL [RPL5] | 3.17 ± 0.14 | 3.28 ± 0.18 | 3.37 ± 0.094 | 3.12 ± 0.1
32 | RKKTEAVARLKSMNKSA [SNF2] | 1.68 ± 0.074 | 2.17 ± 0.085 | 2.23 ± 0.1 | 2.08 ± 0.065
33 | RDDLFVRNLQGIQEVVH [NUT1] | 2.9 ± 0.09 | 3.2 ± 0.094 | 3.15 ± 0.073 | 3.23 ± 0.068
34 | DATYDSALELVGQLNKV [RPN6] | 3.11 ± 0.16 | 3.1 ± 0.11 | 3.27 ± 0.21 | 2.72 ± 0.28
35 | KYFTESDIPVSENVFEG [SSN3] | 3.06 ± 0.11 | 3.25 ± 0.098 | 3.1 ± 0.094 | 3.06 ± 0.073
36 | QRKKQIAFPQRKYAIKA [RPL35A] | 1.25 ± 0.059 | 1.51 ± 0.078 | 1.1 ± 0.17 | 1.23 ± 0.062
37 | DPHSASLINSHLKILAS [RPC82] | 2.15 ± 0.22 | 1.38 ± 0.12 | 1.38 ± 0.19 | 1.23 ± 0.059
38 | KLWRKIARLYSCISISD [RRI2] | 2.87 ± 0.11 | 2.1 ± 0.075 | 2.69 ± 0.064 | 1.61 ± 0.038
39 | SAVVSSNASRRKLINYT [RPN4] | 2.77 ± 0.11 | 2.53 ± 0.14 | 2.55 ± 0.069 | 3.26 ± 0.14
40 | ESLKKELQIFKTANSSS [YIL149C/MLP2] | 2.78 ± 0.065 | 2.93 ± 0.049 | 2.9 ± 0.059 | 2.61 ± 0.042
41 | VSEKAFLLTQSKVSIEQ [RPN7] | 3.21 ± 0.18 |  |  | 2.8 ± 0.14
42 | GPVRENDILVLMESERE [RPS28A] | 2.61 ± 0.23 | 3.4 ± 0.083 | 3.26 ± 0.14 | 2.81 ± 0.092
43 | VSVIAPESQGQHEQQKQ [YMR153W/NUP53] | 2.92 ± 0.085 | 3.15 ± 0.097 | 2.91 ± 0.068 | 2.94 ± 0.068
44 | PMNAPTPAMIPYPGSPM [DSN1] | 2.79 ± 0.044 | 2.76 ± 0.05 | 2.99 ± 0.042 | 3.01 ± 0.034
45 | PLKTQTKNGTPNPNNMK [GAL11] | 2.98 ± 0.085 | 2.94 ± 0.084 | 2.73 ± 0.046 | 2.95 ± 0.043
46 | YVERFETQLKVVTRSKE [SMC1] | 1.12 ± 0.066 | 2.29 ± 0.091 | 1.26 ± 0.2 | 2.11 ± 0.051
47 | PSKTPEVYMRYRNFMVN [SWI3] | 1.8 ± 0.075 | 1.81 ± 0.072 | 1.82 ± 0.14 | 1.81 ± 0.062
48 | FLKDADVECIKAKSHFT [YJL039C/NUP192] | 3.11 ± 0.13 | 3.2 ± 0.14 | 2.91 ± 0.089 | 2.98 ± 0.059
49 | EFIPPDPTKVTEFEFYL [SSN8] | 3.04 ± 0.055 | 2.85 ± 0.039 | 2.88 ± 0.051 | 2.68 ± 0.031
50 | YTDFENTFQKTVEPVYQ [FAS1] | 2.15 ± 0.099 | 2.44 ± 0.1 | 2.03 ± 0.15 | 2.73 ± 0.084
51 | VIKTLTVDVSSPTENGV [RPL22B] | 2.3 ± 0.14 | 2.55 ± 0.089 | 2.32 ± 0.13 | 2.83 ± 0.064
